Experimental data taken from article PMC10442857, “Cellular Uptake of a Fluorescent Ligand Reveals Ghrelin O-Acyltransferase Interacts with Extracellular Peptides and Exhibits Unexpected Localization for a Secretory Pathway Enzyme” (ACS Chemical Biology, 2023).
Each block holds one molecule with its values, some of them ahead of it. Square brackets hold non-standard residues; d marks the D form. Peptide text beside a SMILES is read from it. * marks the point of attachment. X1 = CN1/C(=C/C=C/C=C/C2=[N+](CCCCCC(=O)*)c3ccc(S(=O)(=O)[O-])cc3C2(C)C)C(C)(C)c2cc(S(=O)(=O)O)ccc21; 1Nal = N[C@@H](Cc1cccc2ccccc12)C(=O)O; Dap = NC[C@H](N)C(=O)O

Key:
hGOAT = target: T1, hGOAT (Homo sapiens, UniProt Q96T53); assay: hGOAT inhibition assay (octanoylation of GSSFLCAcDan by Sf9 membrane fraction expressing hGOAT, HPLC fluorescence); assay type: biochemical; settings: average of three independent trials ± one standard deviation; read-out: IC50 against hGOAT
T1 construct: 3xHA (C); FLAG (C); His6 (C); made in house; host or cells: Sf9 insect cells (baculovirus), crude membrane fraction
T1 sequence (Q96T53 1-435): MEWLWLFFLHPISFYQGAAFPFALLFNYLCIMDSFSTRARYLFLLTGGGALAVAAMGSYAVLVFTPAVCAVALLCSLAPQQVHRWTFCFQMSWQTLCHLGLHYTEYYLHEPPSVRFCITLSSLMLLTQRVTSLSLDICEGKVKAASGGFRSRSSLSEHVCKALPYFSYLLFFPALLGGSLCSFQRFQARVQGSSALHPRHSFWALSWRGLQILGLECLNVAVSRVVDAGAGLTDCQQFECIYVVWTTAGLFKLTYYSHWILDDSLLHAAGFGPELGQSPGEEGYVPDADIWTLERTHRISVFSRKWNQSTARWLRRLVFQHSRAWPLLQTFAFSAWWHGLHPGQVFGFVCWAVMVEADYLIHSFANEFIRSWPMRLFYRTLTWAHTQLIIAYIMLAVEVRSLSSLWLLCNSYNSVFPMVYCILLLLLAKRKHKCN
Description: Assays were performed using previously reported protocols,[57],[58] as described in the Supporting Information. […]
hGOAT inhibition assays. Assays were performed using previously reported protocols.2-3 For each assay, membrane fraction from Sf9 cells expressing hGOAT was thawed on ice and homogenized by passage through an 18-gauge needle 10 times. Assays were performed with 50 µg of membrane protein, as determined by Bradford assay. Membrane fraction was pre-incubated with 1 µM methyl […]
arachidonyl fluorophosphonate (MAFP) and unlabeled peptide inhibitor or vehicle as indicated in 50 mM HEPES pH 7.0 for 30 minutes at room temperature prior to reaction initiation.4 All reactions were initiated by the addition of 1.5 µM GSSFLCAcDan and 300 µM octanoyl CoA.
Reactions were incubated for 30 minutes at room temperature under foil. All assays were stopped with the addition of 50 µL of 20% acetic acid in isopropanol, and solutions were clarified by protein precipitation with 16.7 µL of 20% trichloroacetic acid, followed by centrifugation (1,000 x g, 2 minutes). The supernatant was then analyzed using reverse-phase HPLC with fluorescence detection as previously described.2-3 Peak integrations for both substrate and product peaks were calculated using Chemstation for LC (Agilent Technologies). Data reported are the average of three independent determinations, with error reported as standard deviation.
For determination of IC50 values, the percent activity at each inhibitor concentration was calculated from HPLC integration data using equations 1 and 2: To determine an IC50 value for a given inhibitor, the plot of % activity versus [inhibitor] was fit to equation 3, with % activity0 denoting hGOAT activity in the presence of the vehicle alone. All reported IC50 values represent the average of a minimum of three independent trials.
(1) % activity = % peptide acylation in presence of inhibitor
% peptide acylation in absence of inhibitor
(2) % peptide octanoylation = Fluorescence of acylated peptide
Total peptide fluorescence (acylated and non-acylated)
(3) % activity = % activity * (1- [inhibitor] )

GHSR (GHS-R1a) = target: T2, GHSR (GHS-R1a) (Homo sapiens, UniProt Q92847); parameters: method as in Charron et al.[22]; settings: ref Charron et al.[22]; read-out: IC50 against GHSR; cited from earlier work
T2 construct: expressed in transfected cells; host or cells: HEK 293 cells transfected with GHS-R1a (membrane suspension)

[1] = target: human ghrelin O-acyltransferase (hGOAT) of the hGOAT inhibition assays (human) (UniProt Q96T53)
[2] = target: T3, human ghrelin O-acyltransferase (hGOAT) of the hGOAT inhibition assays (human, UniProt Q96T53 1-435); assay: cell-based or functional assay
T3 sequence (looked up): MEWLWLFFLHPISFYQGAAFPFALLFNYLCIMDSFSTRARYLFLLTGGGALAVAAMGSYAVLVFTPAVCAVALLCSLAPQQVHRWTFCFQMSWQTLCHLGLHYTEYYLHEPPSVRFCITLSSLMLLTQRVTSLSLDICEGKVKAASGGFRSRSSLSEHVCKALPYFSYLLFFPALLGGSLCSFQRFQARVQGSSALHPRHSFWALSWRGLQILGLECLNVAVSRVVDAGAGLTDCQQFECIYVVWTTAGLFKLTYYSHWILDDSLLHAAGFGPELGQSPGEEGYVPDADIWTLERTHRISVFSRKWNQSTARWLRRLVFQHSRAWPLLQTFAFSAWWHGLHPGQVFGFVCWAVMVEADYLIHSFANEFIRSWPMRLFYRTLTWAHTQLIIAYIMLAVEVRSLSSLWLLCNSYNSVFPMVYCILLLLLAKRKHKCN

T2 sequence (Q92847 whole entry, species assumed): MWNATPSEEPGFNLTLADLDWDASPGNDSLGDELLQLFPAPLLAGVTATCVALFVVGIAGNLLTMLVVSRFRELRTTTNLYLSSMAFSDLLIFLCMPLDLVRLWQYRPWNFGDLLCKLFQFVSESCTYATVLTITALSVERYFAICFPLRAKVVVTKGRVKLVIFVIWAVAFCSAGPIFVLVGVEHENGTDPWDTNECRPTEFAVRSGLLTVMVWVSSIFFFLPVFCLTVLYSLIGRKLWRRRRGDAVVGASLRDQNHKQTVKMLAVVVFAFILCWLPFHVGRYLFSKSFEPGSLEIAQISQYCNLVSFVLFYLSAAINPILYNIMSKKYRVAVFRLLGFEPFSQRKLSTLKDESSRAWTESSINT

Molecule: H-Aib-S-(6FN-Dap)-FLSPY-NH2 [ligand 6]
- IC50 (GHSR (GHS-R1a)): 9.2 nM

Molecule: H-Inp-S-(6FN-Dap)-FLSPY-NH2 [ligand 7]
- IC50 (GHSR (GHS-R1a)): 9.6 nM

Molecule: ligand 2, H-GS-(C8-Dap)-FLSPY-NH2 (peptide)
- inhibition of hGOAT activity (IC50 against hGOAT) [1]: 64 nM

Molecule: ligand 3, H-GS-(6FN-Dap)-FLSPY-NH2 (peptide)
- inhibition of hGOAT activity (IC50 against hGOAT) [1]: > 100000 nM

B1: ligand 4, H-Aib-S-Dap-FLSPY-NH2 (peptide)
chain: XSXFLSPY
HELM: PEPTIDE1{[Aib].S.[NC[C@H](N[*:1])C(=O)[*:2]].F.L.S.P.Y.[am]}$$$$V2.0
SMILES: CC(C)C[C@H](NC(=O)[C@H](Cc1ccccc1)NC(=O)[C@H](CN)NC(=O)[C@H](CO)NC(=O)C(C)(C)N)C(=O)N[C@@H](CO)C(=O)N1CCC[C@H]1C(=O)N[C@@H](Cc1ccc(O)cc1)C(N)=O
- inhibition of hGOAT activity (IC50 against hGOAT) [2]: > 100000 nM

B2: ligand 1, H-GS-Dap-FLSPY-NH2 (peptide)
chain: GSXFLSPY
HELM: PEPTIDE1{G.S.[NC[C@H](N[*:1])C(=O)[*:2]].F.L.S.P.Y.[am]}$$$$V2.0
SMILES: CC(C)C[C@H](NC(=O)[C@H](Cc1ccccc1)NC(=O)[C@H](CN)NC(=O)[C@H](CO)NC(=O)CN)C(=O)N[C@@H](CO)C(=O)N1CCC[C@H]1C(=O)N[C@@H](Cc1ccc(O)cc1)C(N)=O
- inhibition of hGOAT activity (IC50 against hGOAT) [2]: 104 nM

Other lines, results leading:

- IC50 (hGOAT): 17 ± 2 nM
Molecule: CC(C)C[C@H](NC(=O)[C@H](Cc1cccc2ccccc12)NC(=O)[C@H](CN)NC(=O)[C@H](CO)NC(=O)CN)C(=O)N[C@@H](CO)C(=O)N1CCC[C@H]1C(=O)N[C@H](C(=O)N[C@@H](CCCCNC(=O)CCCCC[N+]1=C(/C=C/C=C/C=C2/N(C)c3ccc(S(=O)(=O)O)cc3C2(C)C)C(C)(C)c2cc(S(=O)(=O)[O-])ccc21)C(N)=O)[C@@H](C)O [ligand 15, H-GS-Dap-Nal-1-LSPTK(SulfoCy5)-NH2] (H-GS[Dap][1Nal]LSPTK(X1)-NH2)

- inhibition of hGOAT activity (IC50 against hGOAT) [1]: 580 nM
Molecule: ligand 9, H-GS-(C8-Dap)-FLSPE-NH2 (peptide)

- inhibition of hGOAT activity (IC50 against hGOAT) [1]: 59 nM
Molecule: ligand 10, H-GS-(C8-Dap)-FLSPN-NH2 (peptide)

- inhibition of hGOAT activity (IC50 against hGOAT) [1]: 27 nM
Molecule: ligand 11, H-GS-(C8-Dap)-FLSPT-NH2 (peptide)

- inhibition of hGOAT activity (IC50 against hGOAT) [2]: 16 nM
B3: ligand 13, H-GS-Dap-Nal-2-LSPT-NH2 (peptide)
chain: GSXXLSPT
HELM: PEPTIDE1{G.S.[NC[C@H](N[*:1])C(=O)[*:2]].[O=C([C@H](Cc1ccc2ccccc2c1)N[*:1])[*:2]].L.S.P.T.[am]}$$$$V2.0
SMILES: CC(C)C[C@H](NC(=O)[C@H](Cc1ccc2ccccc2c1)NC(=O)[C@H](CN)NC(=O)[C@H](CO)NC(=O)CN)C(=O)N[C@@H](CO)C(=O)N1CCC[C@H]1C(=O)N[C@H](C(N)=O)[C@@H](C)O
